# Laboratory results published in PMC11610669, “A Spectroscopic Study on the Amyloid‐β Interaction with Clicked Peptide‐Porphyrin Conjugates: a Vision Toward the Detection of Aβ Peptides in Aqueous Solution” (Chembiochem, 2024).
# Assays:
# [1] = Porphyrin fluorescence in buffer; format: physicochemical; settings: 5 μM, 10 mM phosphate buffer pH 7.4, excitation 425 nm; vs pristine MCPTPyP
# Text: (§1) Peptide conjugation influences the spectral features of the porphyrin chromophore as evidenced by the red shift in the absorption maximum in the region of the Soret band region. The Q bands are also affected, particularly in the Cu‐Ph‐Pep and Zn‐Ph‐Pep compounds (Figure 1). In this case the presence of a metal ion within the porphyrin's core might contribute to the observed spectral profile of these compounds. […] The fluorescence spectra of the investigated systems were also acquired in view of the interaction of the studied conjugates with cells (see below biological section).[41] The fluorescence spectra were recorded with the photoexcitation at 425±5 nm, in 10 mM phosphate buffer pH 7.4 and 5 μM concentration. The emission spectrum of the porphyrin precursor MCPTPyP ( Ph ) was also obtained for the sake of comparison.
# Spectra were recorded on a Horiba Fluoro‐max‐4 spectrofluorometer from 440–800 nm in 1 nm steps, at an excitation wavelength λexc=425 nm, at room temperature. The final fluorescence spectra represent averages of at least three measurements. Bandwidths of 5 nm for both excitation and emission were used. The sample of the compound used to record absorption spectra were the same as those for the CD spectra.
# [2] = UV-Vis self-aggregation of the conjugates; format: physicochemical; settings: UV-Vis 300–650 nm, 5 μM, 10 mM phosphate buffer pH 7.4, room temperature, 0–120 h
# Protocol: We first studied the effects of peptide conjugation on the porphyrin chromophore, by UV‐Vis spectra in the region between 300–650 nm. The spectra were recorded using a solution of 5 μM Porphyrin‐peptide conjugate in 10 mM phosphate buffer pH 7.4. The UV‐Vis profile of the porphyrin precursor MCPTPyP, recorded at the same concentration, is also shown for the sake of comparison (Figure 1).
# as §1
# Spectra were recorded on a Jasco V‐670 Spectrophotometer at room temperature. All measurements were performed in the 300–650 nm wavelength region, in a 10 mM phosphate buffer solution at pH 7.4 using a 1 cm path length quartz cell. The spectra of all the peptide‐porphyrin conjugates, either in the absence or in the presence of equimolar Aβ42, were acquired at 5 μM. In some cases, the same sample solution was used to run the CD spectra. The final concentrations of Aβ42 and peptide conjugates were 5 μM (1 : 1 molar ratio).
# Aβ42 = Aβ42 (Homo sapiens, UniProt P05067); assay: Grating-Coupled Interferometry (GCI) binding to immobilized Aβ42; settings: GCI fit quality parameter
# Protocol: The Grating‐Coupled Interferometry (GCI) is a widely used analytical technique for characterizing intermolecular interactions. It allows quantitative measurements of both the affinity and the kinetics of the binding events. This high sensitivity label‐free method was exploited to measure the interactions of Aβ42 with Cu‐Ph‐Pep , Ph‐Pep , and Zn‐Ph‐Pep (Figure 5S). Control experiments with pristine MCPTPyP and the peptide GPGKLVFF ( Pep ) were carried out for comparison. The calculated association and dissociation kinetic constants (kon and koff, respectively) and the thermodynamic binding constant (KD), are summarized in Table 1. The obtained values indicate that all the conjugates show good affinities with Aβ42. It is also clear from Table 1 that the peptide moiety is fundamental for the molecular recognition of the Aβ42 peptide.[48] […] Nevertheless, it is important to emphasize that the interaction with Aβ42 is primarily mediated by the peptide rather than by the porphyrin macrocycle. We next investigated whether these peptide derivatives could be employed as molecular probes for the detection of Aβ42 aggregated species. A new set of CD experiments was then carried out with Aβ42 at 20 μM both in the absence and in the presence of the porphyrin‐peptide conjugates at 1 : 1 molar ratio in the UV (195–350) and Visible (350–500) regions. […] The signal rapidly evolved toward the typical β‐sheet profile (already within 24 h) with a single minimum at 216 nm, an x‐axis intercept at 202 nm and a maximum shift at a wavelength 195 nm.[49] […] For the sake of comparison, the CD spectra of the porphyrin‐peptide conjugates at 20 μM were also recorded in the same experimental conditions, both in the far‐UV and Visible regions (Figure 6S).
# The experiments were performed on a Creoptix WAVE system (Creoptix). Borate buffer (100 mM sodium borate pH 9.0, 1 M NaCl) was used for chip conditioning. Aβ42 peptide (20 μg/ml in Na Acetate pH 4.5) was immobilized on 4PCH WAVE chips (quasiplanar polycarboxylate surface; Creoptix) according to the manufacturer instructions at a final density of 1910±40 pg/mm^2. Single‐cycle sequential injections of dilution series for each Porphyrin‐Peptide conjugates in running buffer (PBS, 0.005 % Tween 20, 1 % DMSO, 0.2 mg/ml BSA) were performed at 25 °C, using a flow rate of 100 μl/min. In details, for the conjugate Cu‐Ph‐Pep , 1 : 2 dilution series starting from 200 μM were injected for 10 s association time, 45 s dissociation time, followed by a dissociation time of 600 s for the last higher concentration injection. Finally, for the conjugates Ph‐Pep and Zn‐Ph‐Pep , 1 : 2 dilution series starting from 50 μM and 100 uM, respectively, were injected for 30 s association time, 45 s dissociation time, followed by a dissociation time of 600 s for the last higher concentration injection. Blank injections were used for double referencing and a DMSO calibration curve for bulk correction. Analysis and correction of the obtained data were performed using the Creoptix WAVE control software (correction applied: X and Y offset; DMSO calibration; double referencing). Mass transport binding models with bulk correction were used to fit all experiments. All the experiments have been performed at least in triplicate.
# Figure 5S. Quantitative binding kinetics of Aβ42 vs a) MCPTPyP; b) Cu-Ph-Pep; c) Ph-Pep; d) Zn-Ph-Pep; and e) Pep measured by GCI. All curves were blank subtracted. Experiments were performed in triplicate. All the quality assessments (i.e., χ2 shown in Table 1 of the main text , parameter errors, and residual plots were acceptable; the sensorgrams had sufficient curvatures an d the kinetic constant k off were within the measurable range) were fulfilled. Descriptive Statistical Analysis was employed to calculate the mean of the obtained values of k on, koff and KD as a measure of central tendency and standard deviations of the former values were computed as a measure of dispersion.
# Figure 6S. […]
# Sequence of Aβ42 (P05067 672-713 limits assumed): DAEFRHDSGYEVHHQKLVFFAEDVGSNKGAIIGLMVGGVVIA
compound,measurement,setting,value
COC(=O)[C@H](Cc1cn(CCCC[C@H](NC(=O)CNC(C)=O)C(=O)N2CCC[C@H]2C(=O)NCC(=O)N[C@@H](CCCCN)C(=O)N[C@@H](CC(C)C)C(=O)N[C@H](C(=O)N[C@@H](Cc2ccccc2)C(=O)N[C@@H](Cc2ccccc2)C(N)=O)C(C)C)nn1)NC(=O)c1ccc(-c2c3nc(c(-c4cc[n+](C)cc4)c4ccc([nH]4)c(-c4cc[n+](C)cc4)c4nc(c(-c5cc[n+](C)cc5)c5ccc2[nH]5)C=C4)C=C3)cc1 [Zn‐Ph‐Pep],fluorescence emission intensity,[1],somewhat decreased
same,self-aggregation,[2],slight propensity to self‐aggregation
same,"χ^2 (average of the squared residuals, fitting confidence)",Aβ42,0.49±0.09
